Measured values taken from publication PMC9342896.

Biological target: aryl hydrocarbon nuclear receptor translocator 2 (ARNT2), in T-REx293 lysate (human (endogenous in T-REx293)) (UniProt Q9HBZ2)
Chain of UniProt Q9HBZ2 (Q9HBZ2 whole entry): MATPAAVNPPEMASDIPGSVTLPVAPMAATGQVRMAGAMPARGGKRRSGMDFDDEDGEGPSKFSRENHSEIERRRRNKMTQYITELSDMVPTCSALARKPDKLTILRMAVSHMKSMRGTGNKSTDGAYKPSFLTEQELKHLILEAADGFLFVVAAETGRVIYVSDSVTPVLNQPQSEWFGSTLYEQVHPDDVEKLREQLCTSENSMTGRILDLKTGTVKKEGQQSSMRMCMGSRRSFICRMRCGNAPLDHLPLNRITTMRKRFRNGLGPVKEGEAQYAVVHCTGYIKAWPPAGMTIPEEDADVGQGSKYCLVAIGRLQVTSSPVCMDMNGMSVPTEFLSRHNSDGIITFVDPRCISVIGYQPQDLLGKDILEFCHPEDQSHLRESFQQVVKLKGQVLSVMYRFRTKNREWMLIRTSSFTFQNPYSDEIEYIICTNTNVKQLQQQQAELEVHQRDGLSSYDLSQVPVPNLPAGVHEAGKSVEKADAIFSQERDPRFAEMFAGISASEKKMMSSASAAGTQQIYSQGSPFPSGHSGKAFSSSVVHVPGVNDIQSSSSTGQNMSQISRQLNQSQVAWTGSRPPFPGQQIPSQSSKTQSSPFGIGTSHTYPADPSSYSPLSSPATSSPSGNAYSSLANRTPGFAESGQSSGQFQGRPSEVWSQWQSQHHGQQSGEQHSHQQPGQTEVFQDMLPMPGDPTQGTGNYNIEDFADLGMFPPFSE

6xCME luciferase reporter gene activity compared with WT SIM2s: 50 % reduction
Substance: SIM2s-2xHA-3xFLAG W306R variant (natural protein)
